B1: CAP-Gly domain-containing linker protein 1 (Homo sapiens), P30622-1 (parent)
chain: MSMLKPSGLKAPTKILKPGSTALKTPTAVVAPVEKTISSEKASSTPSSETQEEFVDDFRVGERVWVNGNKPGFIQFLGETQFAPGQWAGIVLDEPIGKNDGSVAGVRYFQCEPLKGIFTRPSKLTRKVQAEDEANGLQTTPASRATSPLCTSTASMVSSSPSTPSNIPQKPSQPAAKEPSATPPISNLTKTASESISNLSEAGSIKKGERELKIGDRVLVGGTKAGVVRFLGETDFAKGEWCGVELDEPLGKNDGAVAGTRYFQCQPKYGLFAPVHKVTKIGFPSTTPAKAKANAVRRVMATTSASLKRSPSASSLSSMSSVASSVSSRPSRTGLLTETSSRYARKISGTTALQEALKEKQQHIEQLLAERDLERAEVAKATSHVGEIEQELALARDGHDQHVLELEAKMDQLRTMVEAADREKVELLNQLEEEKRKVEDLQFRVEEESITKGDLETQTKLEHARIKELEQSLLFEKTKADKLQRELEDTRVATVSEKSRIMELEKDLALRVQEVAELRRRLESNKPAGDVDMSLSLLQEISSLQEKLEVTRTDHQREITSLKEHFGAREETHQKEIKALYTATEKLSKENESLKSKLEHANKENSDVIALWKSKLETAIASHQQAMEELKVSFSKGLGTETAEFAELKTQIEKMRLDYQHEIENLQNQQDSERAAHAKEMEALRAKLMKVIKEKENSLEAIRSKLDKAEDQHLVEMEDTLNKLQEAEIKVKELEVLQAKCNEQTKVIDNFTSQLKATEEKLLDLDALRKASSEGKSEMKKLRQQLEAAEKQIKHLEIEKNAESSKASSITRELQGRELKLTNLQENLSEVSQVKETLEKELQILKEKFAEASEEAVSVQRSMQETVNKLHQKEEQFNMLSSDLEKLRENLADMEAKFREKDEREEQLIKAKEKLENDIAEIMKMSGDNSSQLTKMNDELRLKERDVEELQLKLTKANENASFLQKSIEDMTVKAEQSQQEAAKKHEEEKKELERKLSDLEKKMETSHNQCQELKARYERATSETKTKHEEILQNLQKTLLDTEDKLKGAREENSGLLQELEELRKQADKAKAAQTAEDAMQIMEQMTKEKTETLASLEDTKQTNAKLQNELDTLKENNLKNVEELNKSKELLTVENQKMEEFRKEIETLKQAAAQKSQQLSALQEENVKLAEELGRSRDEVTSHQKLEEERSVLNNQLLEMKKRESKFIKDADEEKASLQKSISITSALLTEKDAELEKLRNEVTVLRGENASAKSLHSVVQTLESDKVKLELKVKNLELQLKENKRQLSSSSGNTDTQADEDERAQESQIDFLNSVIVDLQRKNQDLKMKVEMMSEAALNGNGDDLNNYDSDDQEKQSKKKPRLFCDICDCFDLHDTEDCPTQAQMSEDPPHSTHHGSRGEERPYCEICEMFGHWATNCNDDETF
B2: Microtubule-associated protein RP/EB family member 1 (Homo sapiens), Q15691 (parent)
chain: MAVNVYSTSVTSDNLSRHDMLAWINESLQLNLTKIEQLCSGAAYCQFMDMLFPGSIALKKVKFQAKLEHEYIQNFKILQAGFKRMGVDKIIPVDKLVKGKFQDNFEFVQWFKKFFDANYDGKDYDPVAARQGQETAVAPSLVAPALNKPKKPLTSSSAAPQRPISTQRTAAAPKAGPGVVRKNPGVGNGDDEAAELMQQVNVLKLTVEDLEKERDFYFGKLRNIELICQENEGENDPVLQRIVDILYATDEGFVIPDEGGPQEEQEEY

Variants of: B1
Conditions: with dctn1_human DCTN1, Q14203
Target sequence in this assay (Q14203 whole entry): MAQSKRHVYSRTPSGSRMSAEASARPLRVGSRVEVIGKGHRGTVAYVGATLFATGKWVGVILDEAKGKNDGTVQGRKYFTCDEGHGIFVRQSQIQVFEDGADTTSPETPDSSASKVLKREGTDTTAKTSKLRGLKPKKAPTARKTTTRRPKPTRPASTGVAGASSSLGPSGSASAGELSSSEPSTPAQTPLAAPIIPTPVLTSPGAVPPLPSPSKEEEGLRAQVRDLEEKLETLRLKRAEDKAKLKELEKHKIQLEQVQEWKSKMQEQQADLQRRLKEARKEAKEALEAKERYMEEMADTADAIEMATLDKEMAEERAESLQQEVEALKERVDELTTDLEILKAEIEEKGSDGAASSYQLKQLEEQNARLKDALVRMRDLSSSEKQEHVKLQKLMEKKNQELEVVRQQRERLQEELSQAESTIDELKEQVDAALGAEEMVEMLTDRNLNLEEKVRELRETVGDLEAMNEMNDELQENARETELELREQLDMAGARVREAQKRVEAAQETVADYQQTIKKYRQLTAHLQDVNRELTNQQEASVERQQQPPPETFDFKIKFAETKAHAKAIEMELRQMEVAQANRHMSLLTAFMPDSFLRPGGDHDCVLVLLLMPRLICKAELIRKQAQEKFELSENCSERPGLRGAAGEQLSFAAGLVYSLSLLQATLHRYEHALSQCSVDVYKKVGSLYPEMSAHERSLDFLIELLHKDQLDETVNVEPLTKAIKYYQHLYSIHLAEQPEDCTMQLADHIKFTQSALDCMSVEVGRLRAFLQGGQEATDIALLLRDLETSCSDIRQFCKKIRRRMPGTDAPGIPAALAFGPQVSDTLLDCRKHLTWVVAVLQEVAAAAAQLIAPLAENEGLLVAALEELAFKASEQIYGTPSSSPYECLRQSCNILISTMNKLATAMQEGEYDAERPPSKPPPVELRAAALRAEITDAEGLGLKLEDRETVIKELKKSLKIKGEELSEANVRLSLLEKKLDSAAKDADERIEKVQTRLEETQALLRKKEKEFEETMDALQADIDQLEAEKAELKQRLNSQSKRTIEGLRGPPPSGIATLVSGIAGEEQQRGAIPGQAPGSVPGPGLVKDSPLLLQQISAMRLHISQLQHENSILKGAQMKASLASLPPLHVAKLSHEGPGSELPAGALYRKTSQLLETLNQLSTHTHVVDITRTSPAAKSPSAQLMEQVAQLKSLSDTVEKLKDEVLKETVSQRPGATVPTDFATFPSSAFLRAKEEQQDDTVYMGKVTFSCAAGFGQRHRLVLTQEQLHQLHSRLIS

Row | effect of a mutation on the interaction | Variant
1 | decreasing interaction strength | I1410D
2 | decreasing interaction strength | I1410H

Variants of: B2
Conditions: with dctn1_human DCTN1, Q14203
Target sequence in this assay (Q14203 whole entry): as above

Row | effect of a mutation on the interaction | Variant
3 | decreasing interaction strength | Y268I
4 | decreasing interaction strength | Y268G

Source: IntAct's records for PubMed 17828277
